Reference: FireProtDB (doi:10.1021/bi00009a043)
Several values for one entry are separate records, joined by “and”; a condition that tells them apart may be missing. Equal values may be shown once.

Details: Danio rerio; pH 8; Thermal; DSC; Tris 20 mM; KCl 0.6 M; transition: 3; reversible: no

Chain of Tropomyosin alpha-1 chain wild type, P13104 (P13104 whole entry): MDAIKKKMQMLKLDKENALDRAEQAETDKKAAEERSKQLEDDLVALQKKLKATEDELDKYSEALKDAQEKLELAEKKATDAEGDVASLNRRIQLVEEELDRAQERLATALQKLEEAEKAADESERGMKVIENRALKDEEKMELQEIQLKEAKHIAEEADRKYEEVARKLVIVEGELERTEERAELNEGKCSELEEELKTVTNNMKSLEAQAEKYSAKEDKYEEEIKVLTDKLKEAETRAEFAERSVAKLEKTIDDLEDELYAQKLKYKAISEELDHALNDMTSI

Substance: Tropomyosin alpha-1 chain wild type, P13104
- unfolding enthalpy (van 't Hoff): 492 kJ/mol and 521 kJ/mol and 633 kJ/mol
